Where a chain is given by its changes, count along the chain named. Each block holds one binder with its values, some of them ahead of it.
Molecular target: T1, CD3 epsilon homodimer protein (UniProt P07766 23-126)
T1 construct: also called CD3 (CD3 epsilon)
Assay: SPR Biacore T200, CD3 epsilon homodimer on chip, antibody as analyte;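 also: homodimer amine-coupled to a CM4 sensor chip, run at 25 °C in HBS-EP+ buffer, with kinetic parameters derived in Biacore T200 Evaluation Software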

T1 sequence (P07766 23-126): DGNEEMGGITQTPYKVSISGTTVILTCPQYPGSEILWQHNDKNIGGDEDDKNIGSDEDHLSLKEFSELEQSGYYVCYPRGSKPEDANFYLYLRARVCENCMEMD

B1: CE115HA000 H chain altered form A52aE (antibody, human IgG1, kappa, L234A L235A, N297A, name in Kabat numbering)
heavy: QVQLVESGGGVVQPGRSLRLSCAASGFTFSNAWMHWVRQAPGKGLEWVAQIKEKSNNYATYYAESVKGRFTISRDDSKNSLYLQMNSLKTEDTAVYYCRYVHYGAYYGVDAWGQGTTVTVSSASTKGPSVFPLAPSSKSTSGGTAALGCLVKDYFPEPVTVSWNSGALTSGVHTFPAVLQSSGLYSLSSVVTVPSSSLGTQTYICNVNHKPSNTKVDKKVEPKSCDKTHTCPPCPAPEAAGGPSVFLFPPKPKDTLMISRTPEVTCVVVDVSHEDPEVKFNWYVDGVEVHNAKTKPREEQYASTYRVVSVLTVLHQDWLNGKEYKCKVSNKALPAPIEKTISKAKGQPREPQVYTLPPSRCELTKNQVSLSCAVKGFYPSDIAVEWESNGQPENNYKTTPPVLDSDGSFFLVSKLTVDKSRWQQGNVFSCSVMHEALHNHYTQKSLSLSPDYKDDDDK
chain: EPKSSDKTHTCPPCPAPELLGGPSVFLFPPKPKDTLMISRTPEVTCVVVDVSHEDPEVKFNWYVDGVEVHNAKTKPREEQYNSTYRVVSVLTVLHQDWLNGKEYKCKVSNKALPAPIEKTISKAKGQPREPQVCTLPPSRDELTKNQVSLWCLVKGFYPSDIAVEWESNGQPENNYKTTPPVLDSDGSFFLYSKLTVDKSRWQQGNVFSCSVMHEALHNRYTQKSLSLSP
light: DIVMTQSPLSLPVTPGEPASISCRSSQSLVHSNRNTYLHWYQQKPGQAPRLLIYKVSNRFSGVPDRFSGSGSGTDFTLKISRVEAEDVGVYYCGQGTQVPYTFGQGTKLEIKRTVAAPSVFIFPPSDEQLKSGTASVVCLLNNFYPREAKVQWKVDNALQSGNSQESVTEQDSKDSTYSLSSTLTLSKADYEKHKVYACEVTHQGLSSPVTKSFNRGEC
notes: one-arm antibody
- KD ratio (KD of CE115HA000 / KD of altered form): 0.89

B2: CE115HA000 H chain altered form A56K (antibody, human IgG1, kappa, L234A L235A, N297A, name in Kabat numbering)
heavy: B1 heavy with E53A, A59K
chain: B1 chain
light: B1 light
notes: one-arm antibody
- KD ratio (KD of CE115HA000 / KD of altered form): 1.32

B3: CE115HA000 H chain altered form E61D (antibody, human IgG1, kappa, L234A L235A, N297A, name in Kabat numbering)
heavy: B1 heavy with E53A, E64D
chain: B1 chain
light: B1 light
notes: one-arm antibody
- KD ratio (KD of CE115HA000 / KD of altered form): 0.9

B6: CE115HA000 H chain altered form A52aS (antibody, human IgG1, kappa, L234A L235A, N297A, name in Kabat numbering)
heavy: B1 heavy with E53S
chain: B1 chain
light: B1 light
notes: one-arm antibody
- KD ratio (KD of CE115HA000 / KD of altered form): 0.82

B8: CE115HA000 H chain altered form A56Y (antibody, human IgG1, kappa, L234A L235A, N297A, name in Kabat numbering)
heavy: B1 heavy with E53A, A59Y
chain: B1 chain
light: B1 light
notes: one-arm antibody
- KD ratio (KD of CE115HA000 / KD of altered form): 0.63

B9: CE115HA000 H chain altered form A60E (antibody, human IgG1, kappa, L234A L235A, N297A, name in Kabat numbering)
heavy: B1 heavy with E53A, A63E
chain: B1 chain
light: B1 light
notes: one-arm antibody
- KD ratio (KD of CE115HA000 / KD of altered form): 0.88

B10: CE115HA000 H chain altered form F29V (antibody, human IgG1, kappa, L234A L235A, N297A, name in Kabat numbering)
heavy: B1 heavy with F29V, E53A
chain: B1 chain
light: B1 light
notes: one-arm antibody
- KD ratio (KD of CE115HA000 / KD of altered form): 2.94

B12: CE115HA000 H chain altered form A56N (antibody, human IgG1, kappa, L234A L235A, N297A, name in Kabat numbering)
heavy: B1 heavy with E53A, A59N
chain: B1 chain
light: B1 light
notes: one-arm antibody
- KD ratio (KD of CE115HA000 / KD of altered form): 0.84

B13: CE115HA000 H chain altered form H35M (antibody, human IgG1, kappa, L234A L235A, N297A, name in Kabat numbering)
heavy: B1 heavy with H35M, E53A
chain: B1 chain
light: B1 light
notes: one-arm antibody
- KD ratio (KD of CE115HA000 / KD of altered form): 3.98

B17: CE115HA000 H chain altered form H35T (antibody, human IgG1, kappa, L234A L235A, N297A, name in Kabat numbering)
heavy: B1 heavy with H35T, E53A
chain: B1 chain
light: B1 light
notes: one-arm antibody
- KD ratio (KD of CE115HA000 / KD of altered form): 4.4

B18: CE115HA000 H chain altered form A52aY (antibody, human IgG1, kappa, L234A L235A, N297A, name in Kabat numbering)
heavy: B1 heavy with E53Y
chain: B1 chain
light: B1 light
notes: one-arm antibody
- KD ratio (KD of CE115HA000 / KD of altered form): 7.71

B19: CE115HA000 H chain altered form A56G (antibody, human IgG1, kappa, L234A L235A, N297A, name in Kabat numbering)
heavy: B1 heavy with E53A, A59G
chain: B1 chain
light: B1 light
notes: one-arm antibody
- KD ratio (KD of CE115HA000 / KD of altered form): 0.59

B20: CE115HA000 H chain altered form H35K (antibody, human IgG1, kappa, L234A L235A, N297A, name in Kabat numbering)
heavy: B1 heavy with H35K, E53A
chain: B1 chain
light: B1 light
notes: one-arm antibody
- KD ratio (KD of CE115HA000 / KD of altered form): 14.4

B21: CE115HA000 H chain altered form A60D (antibody, human IgG1, kappa, L234A L235A, N297A, name in Kabat numbering)
heavy: B1 heavy with E53A, A63D
chain: B1 chain
light: B1 light
notes: one-arm antibody
- KD ratio (KD of CE115HA000 / KD of altered form): 0.94

B22: CE115HA000 H chain altered form A56L (antibody, human IgG1, kappa, L234A L235A, N297A, name in Kabat numbering)
heavy: B1 heavy with E53A, A59L
chain: B1 chain
light: B1 light
notes: one-arm antibody
- KD ratio (KD of CE115HA000 / KD of altered form): 0.77

B24: CE115HA000 H chain altered form H35F (antibody, human IgG1, kappa, L234A L235A, N297A, name in Kabat numbering)
heavy: B1 heavy with H35F, E53A
chain: B1 chain
light: B1 light
notes: one-arm antibody
- KD ratio (KD of CE115HA000 / KD of altered form): 53.6

B25: CE115HA000 H chain altered form A52aV (antibody, human IgG1, kappa, L234A L235A, N297A, name in Kabat numbering)
heavy: B1 heavy with E53V
chain: B1 chain
light: B1 light
notes: one-arm antibody
- KD ratio (KD of CE115HA000 / KD of altered form): 0.95

B26: CE115HA000 H chain altered form H35I (antibody, human IgG1, kappa, L234A L235A, N297A, name in Kabat numbering)
heavy: B1 heavy with H35I, E53A
chain: B1 chain
light: B1 light
notes: one-arm antibody
- KD ratio (KD of CE115HA000 / KD of altered form): 7.23

B28: CE115HA000 H chain altered form E61Q (antibody, human IgG1, kappa, L234A L235A, N297A, name in Kabat numbering)
heavy: B1 heavy with E53A, E64Q
chain: B1 chain
light: B1 light
notes: one-arm antibody
- KD ratio (KD of CE115HA000 / KD of altered form): 0.85

B32: CE115HA000 H chain altered form E61A (antibody, human IgG1, kappa, L234A L235A, N297A, name in Kabat numbering)
heavy: B1 heavy with E53A, E64A
chain: B1 chain
light: B1 light
notes: one-arm antibody
- KD ratio (KD of CE115HA000 / KD of altered form): 0.94

Now from value to binder:

- KD ratio (KD of CE115HA000 / KD of altered form): 4.8
B4: CE115HA000 H chain altered form H35L (antibody, human IgG1, kappa, L234A L235A, N297A, name in Kabat numbering)
heavy: B1 heavy with H35L, E53A
chain: B1 chain
light: B1 light
notes: one-arm antibody

- KD ratio (KD of CE115HA000 / KD of altered form): 0.74
B5: CE115HA000 H chain altered form A56Q (antibody, human IgG1, kappa, L234A L235A, N297A, name in Kabat numbering)
heavy: B1 heavy with E53A, A59Q
chain: B1 chain
light: B1 light
notes: one-arm antibody

- KD ratio (KD of CE115HA000 / KD of altered form): 45.8
B7: CE115HA000 H chain altered form H35G (antibody, human IgG1, kappa, L234A L235A, N297A, name in Kabat numbering)
heavy: B1 heavy with H35G, E53A
chain: B1 chain
light: B1 light
notes: one-arm antibody

- KD ratio (KD of CE115HA000 / KD of altered form): 15400
B11: CE115HA000 H chain altered form H35R (antibody, human IgG1, kappa, L234A L235A, N297A, name in Kabat numbering)
heavy: B1 heavy with H35R, E53A
chain: B1 chain
light: B1 light
notes: one-arm antibody

- KD ratio (KD of CE115HA000 / KD of altered form): 2.88
B14: CE115HA000 H chain altered form H35N (antibody, human IgG1, kappa, L234A L235A, N297A, name in Kabat numbering)
heavy: B1 heavy with H35N, E53A
chain: B1 chain
light: B1 light
notes: one-arm antibody

- KD ratio (KD of CE115HA000 / KD of altered form): 69
B15: CE115HA000 H chain altered form H35D (antibody, human IgG1, kappa, L234A L235A, N297A, name in Kabat numbering)
heavy: B1 heavy with H35D, E53A
chain: B1 chain
light: B1 light
notes: one-arm antibody

- KD ratio (KD of CE115HA000 / KD of altered form): 4.8
B16: CE115HA000 H chain altered form H35Q (antibody, human IgG1, kappa, L234A L235A, N297A, name in Kabat numbering)
heavy: B1 heavy with H35Q, E53A
chain: B1 chain
light: B1 light
notes: one-arm antibody

- KD ratio (KD of CE115HA000 / KD of altered form): 0.82
B23: CE115HA000 H chain altered form E61P (antibody, human IgG1, kappa, L234A L235A, N297A, name in Kabat numbering)
heavy: B1 heavy with E53A, E64P
chain: B1 chain
light: B1 light
notes: one-arm antibody

- KD ratio (KD of CE115HA000 / KD of altered form): 0.61
B27: CE115HA000 H chain altered form A52aG (antibody, human IgG1, kappa, L234A L235A, N297A, name in Kabat numbering)
heavy: B1 heavy with E53G
chain: B1 chain
light: B1 light
notes: one-arm antibody

- KD ratio (KD of CE115HA000 / KD of altered form): 5
B29: CE115HA000 H chain altered form A52aP (antibody, human IgG1, kappa, L234A L235A, N297A, name in Kabat numbering)
heavy: B1 heavy with E53P
chain: B1 chain
light: B1 light
notes: one-arm antibody

- KD ratio (KD of CE115HA000 / KD of altered form): 70.3
B30: CE115HA000 H chain altered form H35E (antibody, human IgG1, kappa, L234A L235A, N297A, name in Kabat numbering)
heavy: B1 heavy with H35E, E53A
chain: B1 chain
light: B1 light
notes: one-arm antibody

- KD ratio (KD of CE115HA000 / KD of altered form): 0.71
B31: CE115HA000 H chain altered form A56D (antibody, human IgG1, kappa, L234A L235A, N297A, name in Kabat numbering)
heavy: B1 heavy with E53A, A59D
chain: B1 chain
light: B1 light
notes: one-arm antibody

- KD ratio (KD of CE115HA000 / KD of altered form): 2.93
B33: CE115HA000 H chain altered form H35S (antibody, human IgG1, kappa, L234A L235A, N297A, name in Kabat numbering)
heavy: B1 heavy with H35S, E53A
chain: B1 chain
light: B1 light
notes: one-arm antibody

— patent US20240270846A1 (published 2024)
